Data set [1] deals with the molecule itself. The experiment in a line: cross-linking.
In data set [2] the target is T1, soluble PDZK1 purified from bacteria (human, UniProt Q5T2W1 1-519).
T1 sequence (looked up): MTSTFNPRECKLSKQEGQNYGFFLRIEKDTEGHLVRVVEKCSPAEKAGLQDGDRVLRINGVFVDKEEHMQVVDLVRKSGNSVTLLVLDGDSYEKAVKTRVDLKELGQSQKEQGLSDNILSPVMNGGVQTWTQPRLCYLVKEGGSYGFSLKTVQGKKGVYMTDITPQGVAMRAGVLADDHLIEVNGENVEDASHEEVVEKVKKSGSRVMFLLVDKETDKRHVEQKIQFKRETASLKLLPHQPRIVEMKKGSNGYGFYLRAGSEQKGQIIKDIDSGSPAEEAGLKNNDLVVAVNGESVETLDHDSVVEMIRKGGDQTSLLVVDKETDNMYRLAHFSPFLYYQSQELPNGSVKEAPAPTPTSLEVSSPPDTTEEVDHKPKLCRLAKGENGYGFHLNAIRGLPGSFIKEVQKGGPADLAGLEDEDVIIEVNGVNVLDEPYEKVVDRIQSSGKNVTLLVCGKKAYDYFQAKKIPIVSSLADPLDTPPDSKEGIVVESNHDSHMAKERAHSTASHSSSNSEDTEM
The data set is described as follows: pull-down.

The target of data set [3] is T2, soluble PDZK1 ΔDTEM purified from bacteria (human, UniProt Q5T2W1 1-515).
T2 sequence (looked up): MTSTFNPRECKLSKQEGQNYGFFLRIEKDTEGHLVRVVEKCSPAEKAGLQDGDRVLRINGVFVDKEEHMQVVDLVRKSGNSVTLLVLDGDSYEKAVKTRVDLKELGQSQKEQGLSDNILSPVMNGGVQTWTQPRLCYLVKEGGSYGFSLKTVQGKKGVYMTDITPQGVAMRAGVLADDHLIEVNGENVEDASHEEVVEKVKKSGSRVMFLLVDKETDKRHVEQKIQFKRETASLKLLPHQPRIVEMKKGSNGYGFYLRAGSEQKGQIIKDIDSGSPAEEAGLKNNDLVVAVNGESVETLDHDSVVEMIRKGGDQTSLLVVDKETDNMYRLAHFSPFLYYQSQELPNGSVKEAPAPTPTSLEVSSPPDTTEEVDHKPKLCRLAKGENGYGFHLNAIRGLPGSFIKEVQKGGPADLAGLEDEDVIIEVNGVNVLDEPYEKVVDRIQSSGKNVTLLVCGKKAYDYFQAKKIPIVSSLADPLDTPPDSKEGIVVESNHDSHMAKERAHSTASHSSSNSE
The data set is described as follows: pull-down.

B1: PDZK1 PDZs 3 and 4 to the end of the protein (amino acids 227–515), soluble (domain or fragment, human, UniProt Q5T2W1 227-515, looked up)
chain: FKRETASLKLLPHQPRIVEMKKGSNGYGFYLRAGSEQKGQIIKDIDSGSPAEEAGLKNNDLVVAVNGESVETLDHDSVVEMIRKGGDQTSLLVVDKETDNMYRLAHFSPFLYYQSQELPNGSVKEAPAPTPTSLEVSSPPDTTEEVDHKPKLCRLAKGENGYGFHLNAIRGLPGSFIKEVQKGGPADLAGLEDEDVIIEVNGVNVLDEPYEKVVDRIQSSGKNVTLLVCGKKAYDYFQAKKIPIVSSLADPLDTPPDSKEGIVVESNHDSHMAKERAHSTASHSSSNSE
For the molecule B1, the “stoichiometry N” value in data set [1] worked out at 2.

B2: GST-PDZK1-tail (domain or fragment, human, UniProt Q5T2W1 458-519, looked up)
chain: KAYDYFQAKKIPIVSSLADPLDTPPDSKEGIVVESNHDSHMAKERAHSTASHSSSNSEDTEM
B2: the binding result in data set [2] and in data set [3] was “binds” in each case.

What is called stoichiometry N is a count of units in the complex or per binding partner.

These data come from publication PMC2765514 (Biochemistry, 2009).
